Measurements reported in the supplement of paper PMC9170038.

Test system: MS2 coat protein
Assay: apparent KD of MS2 coat protein; designed switch direction (-1 OFF switch, 1 ON switch): -1; higher = weaker reporter binding
In short: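 Designed RNA switches were transcribed on Illumina chips by stalled E. coli RNA polymerase and titrated with SNAP-549-labelled MS2 coat protein from 0.7 or 1.5 nM, doubling to 3 µM. Step length ran from 0.8–1.5 h at the lowest concentration to 10–20 min at the highest. The apparent KD is the median over clusters for each design, from curve-fitted normalised cluster fluorescence.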

[1] = input ligand: microRNA oligo, concentration not stated
[2] = Eterna round: R95, input ligand: FMN 200 uM
[3] = Eterna round: R95, input ligand: microRNA oligo, concentration not stated
[4] = Eterna round: R95, input ligand: none

| Sequence | apparent KD of MS2 coat protein (input ligand: FMN 200 uM) [nM] | apparent KD of MS2 coat protein [1] [nM] | apparent KD of MS2 coat protein (input ligand: none) [nM] | apparent KD of MS2 coat protein [2] [nM] | apparent KD of MS2 coat protein [3] [nM] | apparent KD of MS2 coat protein [4] [nM] |
| --- | --- | --- | --- | --- | --- | --- |
| GCAGCGUAUGUAGGAUAUCGGUCAGUUUCUGAUCGAGAAGGACAUGAGGAUCACCCAUGUUAUUUCAUGCGUGAGCAUGGCUGC [JL ENG1 3.73] (Eterna round: R96, puzzle: Exclusion NG 1) | 271 | 31 | 37.1 | – | – | – |
| GACUAAAUUUUGUUUGGUUACAUGAGGAUCACCCAUGUUGGUCUAAGAACAUGUCUUUUGUACGCUUGUCUUAUAUA [JR_SV3TOV1_Sub068] (puzzle: Sensor v3, turn-off variant 1) | – | – | – | 76.6 | 45.8 | 96.3 |
| ACAUUACAUGAGGAUCACCCAUGUGAGGAUAUGGUGCGGUAGUGUCCUGUCGCGUACACCAGAAGGCGCGGGUG [1st #47] (Eterna round: R97, puzzle: Exclusion 1) | 122 | – | 258 | – | – | – |
| UUUUAACAUGAGGAUCACCCAUGUGAGGAUAUCGAAAUUUAUAUUAAUAUUUUUAAUACGAGAAGGCACAUUUU [JMF 70] (puzzle: Exclusion 1) | – | – | – | – | 49.6 | – |
| CUGCUGGAGCGUUGCUUUGGUCGUACAUGAGGAUCACCCAUGUAGGAUAUGGUAAAAUUUGCUUGCUAGAAGGAUAGAGUGGUC [salish99_ExNG3_r04_613] (Eterna round: R96, puzzle: Exclusion NG 3) | 117 | 63.5 | 64.6 | – | – | – |
| UUAUUAUAUGAAGGAUAUACUUAACAUGAGGAUCACCCAUGUGGUGUUGUGAGUGAGUGAGUUUAGUAGAAGGUCAAUUAUUUU [JMF's solution 28] (Eterna round: R96, puzzle: Exclusion NG 2) | 833 | 287 | 335 | – | – | – |
| AACAUCGUAGGAUAUUCGUGCUCAGACAUGAGGAUCACCCAUGUUUGGUGGGUUGGAGAAGGAGAAGGGCGAUGGA [EX5 #18] (Eterna round: R97, puzzle: Exclusion 5) | 67.9 | – | 92.8 | – | – | – |
| CAUGAAGACAAGGAUAUCCGAAUGACGUAAGAAGGAGAAGGUGUCACAUGAGGAUCACCCAUGUGGGAUCUCUG [EX6 B.15] (Eterna round: R97, puzzle: Exclusion 6) | 138 | – | 23.9 | – | – | – |
| CCAGGCUGUGUGAGGAUAUGCUGGUCCUUGGAUCAGCAGAAGGCACAUGAGGAUCACCCAUGUGAGGAGCUUGG [JL bmx4 3.28] (puzzle: Brourd's mod of Exclusion 4) | – | – | – | – | 19.9 | – |
| GUCGUGACCAAGGAUAUAGCUAGGGAAGGAAAGUUAGAAGGUGGUACAUGAGGAUCACCCAUGUAGUCCACAAA [Dixeatleve] (puzzle: Exclusion 6) | – | – | – | 13.1 | 13 | 12.9 |
| AGAGAAUACUCAGGAUAUCUGAAUAGAUAGAGAAGAGAAGGGAGACAUGAGGAUCACCCAUGUGAAGUCUUGAGGCUGCAUGGA [Prohibition 24 - Jieux - Exclusion NG 1] (Eterna round: R96, puzzle: Exclusion NG 1) | 165 | 85.6 | 209 | – | – | – |
| GGGCUAGAAGGAGGAUAUUGAAGAUCCUCACGACAUGAGGAUCACCCAUGUGGUUUAGCAAGGGCCAAGAAGGCCUAUAGCCCA [Zasoan] (Eterna round: R96, puzzle: Exclusion NG 2) | 111 | 52.1 | 77.3 | – | – | – |
| GAGUUAACAUGAGGAAUAUACAUGAGGAUCACCCAUGUUAACAAAUUUAUUGCUCGUCUUAUAACAACAAUUAACUC [Alarm 5 - Jieux - Sensor, turn-off variant 1] (Eterna round: R97, puzzle: Sensor, turn-off variant 1) | 105 | – | 111 | – | – | – |
| AUGAUGUUAGGAUAUCAUUGCCGGGUUUGAAAACACGGGAUUGAGAAGGAACAUGAGGAUCACCCAUGUGCCUC [EX4 C.9] (Eterna round: R97, puzzle: Exclusion 4) | 118 | – | 27.5 | – | – | – |
| UAUUAGCAAGUGAGAUCCGACAUGAGGAUCACCCAUGUGCUCGUCUUAUAAGGUAAUAUAAGAAAACUUAUAUUACC [Elimod 6 - Jieux - Sensor, turn-off variant 1] (Eterna round: R97, puzzle: Sensor, turn-off variant 1) | 207 | – | 233 | – | – | – |
| GAUUCGCGAGGAUAUACAGUCGAGUCCAUUACGUGUCUGGGACUUGAGGAUCACCCAAGUAGAAGGCGUCUCAU [salish99_ex2_r4_638] (Eterna round: R97, puzzle: Exclusion 2) | 55.6 | – | 57.8 | – | – | – |
| AAUUUACAUGAGGAUCACCCAUGUGAGGAUAUAUGUAAACAAUUUUUAUUCAUCAAACAUAGAAGGCGCGUGAU [JR_Exc1_Sub044] (Eterna round: R97, puzzle: Exclusion 1) | 41.3 | – | 42.6 | – | – | – |

| Sequence | apparent KD of MS2 coat protein (input ligand: FMN 200 uM) [nM] | apparent KD of MS2 coat protein [1] [nM] | apparent KD of MS2 coat protein (input ligand: none) [nM] | apparent KD of MS2 coat protein [2] [nM] | apparent KD of MS2 coat protein [3] [nM] | apparent KD of MS2 coat protein [4] [nM] |
| --- | --- | --- | --- | --- | --- | --- |
| AAAAGAACGGCAGGAUAUGCAAGCACUGACCUCCCAAAAUAAAGAAACAUGAGGAUCACCCAUGUGCAGAAGGGCCAAAAGUGC [Vediusin] (Eterna round: R96, puzzle: Exclusion NG 2) | – | 10.4 | – | – | – | – |
| UGCUAGUCAGGAUAUACGAACAUGUCAAAAGACGUGAAGGGACAUGAGGAUCACCCAUGUAGAAGGGACUAGCA [salish99_ex2_r3_005] (puzzle: Exclusion 2) | – | – | – | 158 | 27.1 | 23.9 |
| AGUUGUUGCGCAGGAUAUGAGGAUCACCCAUAGAAGGAUAUCGAAAGAGAAGGUCUGAGGAUUACCCAGAAGGGCGUGAUGACA [pwkr exNG2 2xF5 2xFMN.8] (Eterna round: R96, puzzle: Exclusion NG 2) | 905 | 130 | 184 | – | – | – |
| GAAGAGACAGGAUAUACAUGAGGAUCACCCAUGUGAGGAGGUUGGAGGCGGAGGAGGUGUAGAAGGGUCAAAGA [JR_Exclu3_Sub021] (puzzle: Exclusion 3) | – | – | – | 41.6 | 29.7 | 38.8 |
| GCAUCCAUAGUGAGGAUAUACCUCUGGAUACAUAGGUAGAAGGCACAUGAGGAUCACCCAUGUUCUUAGGAUGC [Fiskers BMX 4 - 34] (puzzle: Brourd's mod of Exclusion 4) | – | – | – | – | 23.9 | – |
| GAGUGCUGAGGAUAUACAUGAGGAUCACCCAUGUGCUUCAGCUAGGAGACUAGCUUUGGUAGAAGGCAGUACUC [Mod of lroppy 23 - Jieux - Exclusion 3] (Eterna round: R97, puzzle: Exclusion 3) | 49.4 | – | 14.2 | – | – | – |
| CUUGUUUAUGUAGGAUAUGCCUGGCGUGCCUUUGCAGAAGGACAUGAGGAUCACCCAUGUAACAUGAGGCUAACCCUUGUCGCC [salish99_ExNG1_r04_118] (Eterna round: R96, puzzle: Exclusion NG 1) | 86.7 | 65.7 | 96 | – | – | – |
| GUUGUUUAUGUAGGAUAUGCCUGGCGAGCCUAAGCAGAAGGACAUGAGGAUCACCCAUGUAUUGCGGUCUGCGUUCAGAUCGCU [salish99_ExNG1_r4_018] (Eterna round: R96, puzzle: Exclusion NG 1) | 38.3 | 9.94 | 18.9 | – | – | – |
| UUAUAUAAUGUGAGGAUAUGCUGGUCGAUAGAUCAGCAGAAGGCACAUGAGGAUCACCCAUGUAGUAAAUUUUA [Mat - Exclusion 4 - JL Mod - D13] (puzzle: Brourd's mod of Exclusion 4) | – | – | – | 25.5 | 16.4 | 16.2 |
| AUAUUACGAGGAUAUCGUCUCUCCCACAUGAGGAUCACCCAUGUUAUCCAUGUUUCGUUUCGAGAAGGCGUAAGUU [JR_E5_Sub071] (puzzle: Exclusion 5) | – | – | – | – | 65.2 | – |
| UUAUUAAGUGUGAGGAUAUGCUGGUCCUUGGAUCAGCAGAAGGCACAUGAGGAUCACCCAUGUAAUAUAUUUAU [JL bmx4 3.09] (puzzle: Brourd's mod of Exclusion 4) | – | – | – | – | 75.8 | – |
| GGAGAGAGAGGAUAUGGAGGUUGGAACAUGAGGAUCACCCAUGUUAAACCUCAUGACCGACUAGAAGGCUCAGUCC [AK-MS2ROC-r4-exclusion5-9.1] (Eterna round: R97, puzzle: Exclusion 5) | 17.8 | – | 18.9 | – | – | – |
| AUAAUGUCAGGAUAUCGAGACUACUGCUUCGGCAGUAGUCUCGAGAAGGGACAUGAGGAUCACCCAUGUGAUCA [E4/1-A1] (Eterna round: R97, puzzle: Exclusion 4) | 41.8 | – | 40.8 | – | – | – |
| UGAGUGCUGCGAGGAUAUACAUGAGGAUCACCCAUGUGGAUGUCUGAGGCAAAGCCUCAGACAAUGUAGAAGGCGCAGUACUCU [Mat - Exclusion NG 2 - Mod of JL - D55] (Eterna round: R96, puzzle: Exclusion NG 2) | 96.1 | 16.6 | 25.2 | – | – | – |
| CAGGUGUAAGGAUAUACCGGAUGGUCCAAAGCUUGGCAAAGACAUGAGGAUCACCCAUGUAGAAGGUACGUCCG [Eternabot (Original) Solution 21] (Eterna round: R97, puzzle: Exclusion 2) | 313 | – | 383 | – | – | – |
| AUUUAACAUGAGGAUCACCCAUGUGAGGAUAUGCGAGUAUAGACUUCGGUCUGAUAGAGCAGAAGGCGCAGAUA [EX1 #8] (Eterna round: R97, puzzle: Exclusion 1) | 67.7 | – | 55.9 | – | – | – |
| AUGGGUCCUCUCGGAGCUACAUGAGGAUCACCCAUGUGUAUUGAGGAUAUCCACUGCUCAGGACUGGAGAAGGCAGUGUACUGU [Ex NG3 #88] (Eterna round: R96, puzzle: Exclusion NG 3) | 56.2 | 33.5 | 59.9 | – | – | – |
